What all share (test): SPR, Carterra LSA, antibody immobilised
Background: In SPR one partner is held on a chip, and binding of the other changes the refractive index at the surface.

For test [1], the target named is T1, cyno MerTK extracellular domain (ECD), recombinant (cynomolgus monkey, UniProt Q12866 21-505 (human entry)).
T1 construct: also called cynomolgus MerTK; not shown: polyHis tag or TEVS/Thrombin/murine IgG2a Fc tag
T1 chain: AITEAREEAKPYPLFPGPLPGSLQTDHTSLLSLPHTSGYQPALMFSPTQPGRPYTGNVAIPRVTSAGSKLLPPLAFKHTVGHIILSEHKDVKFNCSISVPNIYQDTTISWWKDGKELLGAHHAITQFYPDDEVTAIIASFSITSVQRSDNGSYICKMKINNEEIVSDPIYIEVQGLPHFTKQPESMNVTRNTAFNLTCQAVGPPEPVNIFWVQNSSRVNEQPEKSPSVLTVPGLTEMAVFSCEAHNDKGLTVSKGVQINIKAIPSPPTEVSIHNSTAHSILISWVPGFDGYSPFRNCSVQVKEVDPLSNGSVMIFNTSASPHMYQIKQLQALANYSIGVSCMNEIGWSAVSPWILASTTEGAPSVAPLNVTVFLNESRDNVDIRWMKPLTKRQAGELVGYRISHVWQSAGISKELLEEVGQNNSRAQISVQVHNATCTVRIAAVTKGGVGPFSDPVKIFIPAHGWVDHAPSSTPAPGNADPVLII
The essentials:
(§1)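 Anti-MerTK antibodies diluted to 10 μg/ml in 10 mM Acetate, pH 4.25 were amine-coupled in a 96-spot array onto an HC200M chip activated with MES/sulfo-NHS/EDC, then blocked with 1M Ethanolamine pH 8.5. On a Carterra LSA, recombinant MerTK extracellular domain was injected at 33.3, 100, and 300 nM in HBS-TE with 0.5 mg/ml BSA, lowest to highest without regeneration. KD came from fitted k-on and k-off.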

In test [2] the target is T2, murine MerTK extracellular domain (ECD), recombinant (mouse, UniProt Q60805 19-497).
T2 construct: also called moMerTK; mouse MerTK; not shown: polyHis tag or TEVS/Thrombin/murine IgG2a Fc tag
T2 sequence: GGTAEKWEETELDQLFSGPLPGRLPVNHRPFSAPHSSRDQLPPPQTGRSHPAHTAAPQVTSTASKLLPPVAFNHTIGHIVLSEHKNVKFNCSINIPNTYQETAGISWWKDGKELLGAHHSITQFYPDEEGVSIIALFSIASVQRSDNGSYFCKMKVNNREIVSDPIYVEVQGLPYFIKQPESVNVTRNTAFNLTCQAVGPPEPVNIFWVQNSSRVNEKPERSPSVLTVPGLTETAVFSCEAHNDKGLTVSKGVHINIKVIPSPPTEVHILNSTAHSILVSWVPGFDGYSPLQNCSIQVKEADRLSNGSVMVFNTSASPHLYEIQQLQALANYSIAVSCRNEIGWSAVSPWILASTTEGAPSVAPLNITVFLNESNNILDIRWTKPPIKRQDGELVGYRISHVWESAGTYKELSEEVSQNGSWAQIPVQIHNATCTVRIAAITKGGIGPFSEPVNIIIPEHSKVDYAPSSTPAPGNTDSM
The gist of the method:
as §1

Test [3] concerns the target T3, human MerTK extracellular domain (ECD), recombinant (human, UniProt Q12866 21-505).
T3 construct: also called huMerTK; not shown: polyHis tag or TEVS/Thrombin/murine IgG2a Fc tag
T3 sequence: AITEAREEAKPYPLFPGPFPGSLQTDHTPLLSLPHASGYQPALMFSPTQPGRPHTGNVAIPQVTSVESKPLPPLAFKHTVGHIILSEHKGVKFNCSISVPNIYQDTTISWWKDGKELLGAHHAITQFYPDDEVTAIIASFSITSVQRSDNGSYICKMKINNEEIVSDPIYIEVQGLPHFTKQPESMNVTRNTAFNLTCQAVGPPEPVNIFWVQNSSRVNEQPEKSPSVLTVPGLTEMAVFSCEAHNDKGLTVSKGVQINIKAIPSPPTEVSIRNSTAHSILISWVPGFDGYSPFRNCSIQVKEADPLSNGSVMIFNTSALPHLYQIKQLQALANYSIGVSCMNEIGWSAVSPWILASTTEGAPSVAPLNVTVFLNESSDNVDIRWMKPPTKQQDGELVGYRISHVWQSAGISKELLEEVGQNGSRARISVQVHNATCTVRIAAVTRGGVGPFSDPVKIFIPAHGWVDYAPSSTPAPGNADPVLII
The essentials: as §1

B1: MTK-35 (antibody, human IgG1, V domains shown)
VH: QVLLQQSGPELVKPGASVQLSCKASDYTFTSYDIHWVKQRPGQGLEWIGWIYPRDGYTKYNEIFKGKATLTVDTSSTTAYMELHSLTSEDSAVYFCARAYYTNWYYFDYWGQGTTLTVSS
VL: EIVLTQSPTTMAASPGEKITITCRASSSISSHYLHWYQQKPGFSPKLLIYRTSNLASGVPARFSGSGSGTSYSLTIGTMEAEDVATYYCQQGSTIPLTFGAGTKLVLK
For orientation: Kd means the concentration at which binding is half-saturated. On to B1, for which the Kd was found to be 13 nM in test [1] and 14 nM in test [3]. For the same molecule, the binding result in test [2] is reported as “no binding (tested: 300 nM)”.

B2: MTK-32 (antibody, human IgG1, V domains shown)
VH: QIQLVQSGPELKKPGETVKISCKASGYTFTSYGMSWVHQAPGKGLKWLGWINTYSGVPTYADDFRGRFAFSLDTSVSTASLEINNLQNEDTATYFCAREDNWAWFAYWGQGTLVTVST
VL: QIVLSQSPAILSASPGEKVTMTCRATSSVGYMHWYQRKPGSSPKPWIYATSNLASGVPARFSGSGSGTSYSLTISRVEAEDAATYYCQQWSSNPRTFGGGTKLEIK
For B2, the Kd in test [1] was 107 nM; in test [2], 186 nM; in test [3], 59 nM.

B3: MTK-08 (antibody, human IgG1, V domains shown)
VH: QIQLVQSGPELKKPGETVKISCKASGYTFTNYGMNWVKQAPGKGLKWMGWINTYTGEPTYADDFKGRFAFSLETSASTAYLQINNLKNEDTATYFCAREVRYWYFDVWGAGTTVTVSS
VL: QIVLSQSPAILSASPGEKVTMTCRATSSVSYMHWFQQKPGSSPKPWIYATSNLASGVPARFSGSGSGTSYSLTISRVEAEDAAAYYCQHWSGNPRTFGGGTKLEIK
For B3, the equilibrium dissociation constant (Kd) in test [1] stood at 42 nM; in test [3] it was 37 nM. Moreover, the binding result in test [2] is given as “no binding (tested: 300 nM)”.

B4: MTK-14 (antibody, human IgG1, V domains shown)
VH: QIQLVQSGPELKKPGETVKISCKASGYTFTNYGMNWVKQAPGKDLQWMGWINTYTGEPTYADDFTGRFAFSLETSASTAYLQINNLKNEDTATYFCAKGGHYAWFAYWGQGTLVTVSA
VL: QIVLSQSPAILSASPGEKVTMTCRSSSSVSYMHWYQQKPGSSPKPWIYATSNLASGVPGRFSGSGSGTSYSLTISRVEAEDAATYYCQQWGSNPRTFGGGTKLEIK
With B4, the Kd is 53 nM in test [1] and 45 nM in test [3]. Further, in test [2], the binding result was “no binding (tested: 300 nM)”.

B5: MTK-36 (antibody, human IgG1, V domains shown)
VH: QVTLKESGPGILQPSQTLSLTCSFSGFSLSTFGMGVGWIRQPSGKGLEWLAHIWWYDDKYYEPALKSRLTISKDSSKNQVFLKIANVDTADTATYYCARIYYGTSYRYFDVWGTGTTVTVSS
VL: QIVLSQSPAILSAFPGEKVTMTCRATSSVRYMHWYQQKPGSSPKPWIYATYNLTSGVPARFSGSGSGTSYSLTISRVEAEDAATYYCHQWSSNPYTFGGGTKLEIK
With B5, the Kd in test [1] stood at 5.9 nM; in test [3], 6.4 nM. For the same molecule, the binding result in test [2] is recorded as “no binding (tested: 300 nM)”.

B6: MTK-02 (antibody, human IgG1, V domains shown)
VH: QIQLVQSGPELKQPGETVKISCKASGYTFTDYGVNWVKQAPGKGLKWMGWINTYSGEPTYAGDFKGRFAFSLESSASTAFLQINNLKNEDMATYFCARRVRYWYFDVWGAGTSVTVSS
VL: QIVLSQSPAILSASPGERVTMTCRANSSVSYMHWYQQKPGSSPKPWIYATSNLASGVPARFSASGSGTSYSLTVSRVEAEDAATYYCQQWGSNPFTFGSGTKLEIK
In the case of B6, the figures for the Kd in test [1] and in test [3] were 24 nM and 22 nM, respectively. Besides, in test [2], the binding result is on record as “no binding (tested: 300 nM)”.

B7: MTK-30 (antibody, human IgG1, V domains shown)
VH: QVQLQQPGTELVRPGASVKLSCKASGYTFTSYWMHWVKQRPGQGLEWIGNLNPNNGGTYYNEKFKSKATLTVDKSSSTAYMQLSSLTSEDSAVYYCARQILLYFDYWGQGTTLTVSS
VL: DVLMTQTPLSLPVSLGDQASISCRSSQSIVHSNGDTYLEWYLQKPGQSPKLLIYKVSNRFSGVPDRFSGSGSGTDFTLKISRVEAEDLGVYYCFQGSHVPWTFGGGTKLEIK
On to B7, for which the Kd in test [1] worked out at 24 nM; in test [2], 30 nM; in test [3], 23 nM.

B8: MTK-31 (antibody, human IgG1, V domains shown)
VH: QIQLVQSGPELKKSGETVKISCKASGYTFTSYGMSWVKQAPGKGLKWMGWINTYSGVPTYADDFKGRFAFSLETSASTAYLQINNLKNEDTATYFCASLSYDGSLYHAMDYWGQGTSVTVSS
VL: DVSMTQTPLSLPVSLGDQASISSRSSQTIVHSNGNTYLEWYLQKPGQSPKLLIYKVSNRFSGVPDRFSGSGSGTDFTLKISRVEAEDLGVYYCFQGSHVPWTFGGGTKLEIK
B8: the values for the dissociation constant Kd in test [1], in test [2] and in test [3] were 91 nM, 165 nM and 81 nM, respectively.

(Values after US20210261685A1 (Alector, published 2021).)
